Measurements published in PMC10987521, “An all-in-one tetrazine reagent for cysteine-selective labeling and bioorthogonal activable prodrug construction” (Nature Communications, 2024).

Experiment: Critical micelle concentration of peptide conjugates (Nile Red)
Type: physicochemical
Details: PBS (5% DMSO), Nile Red 1.0 μM, room temperature overnight; intersection of tangents
Experimental: The second-order rate constant for the labeling reactions between tetrazine 1 and Cys was determined at 25 °C in PB (30% MeCN, 20 mM, pH 8.0) under second-order conditions using a 6000+ (Quawell) UV-Vis spectrophotometer. The concentrations of cysteine and tetrazine were identical. The specific difference in absorption wavelength (300 nm) between 1 and Cys-1 was measured over time. The second-order rate constant k2 was calculated from the slope of a plot of (1/c – 1/c0) versus time.
5. Competitive labeling reaction with other nucleophilic amino acids
For the competitive labeling experiment, 10 equiv. (2 mM) of N-Fmoc-Lys, N-Fmoc-Arg, Ser, Tyr, and 1.3 equiv. […] The resulting solution was maintained at 25 °C and monitored by LC –MS. […]
Each voTz analogue (1.1 equiv.) was added to a 0.25 mL vial containing solvent. […] The chromatogram peak areas of all relevant Cys -containing species were integrated, and the yiel d was determined using the following equation: Yield (%) = Iproduct/(Istarting + Iproduct + Ioxidation + Iside product) × 100, where Istarting, Iproduct, Ioxidation, and Iside product respectively represent the average ion counts of remaining starting material, product, oxidized starting material and any side product, if present 2. […]
DLS analyses and particle zeta potential values were determined using a Nano ZS ZEN 3690 instrument (Malvern […]

With `COc1cccc2c1C(=O)c1c(O)c3c(c(O)c1C2=O)C[C@@](O)(C(=O)CO)C[C@@H]3O[C@H]1C[C@H](NC(=O)OCc2nnc(CCSC[C@@H]3NC(=O)[C@@H](Cc4ccc(O)cc4)NC(=O)[C@H](CC(=O)O)NC(=O)CNC(=O)[C@H](CCCNC(=N)N)NC3=O)nn2)[C@H](O)[C@H](C)O1` [RGD-Dox] the “critical micellar concentration (CMC)” value was 3.31 µM.
